Results as given in patent US20220289850 (published 2022).

Target: T1, mouse integrin avb8 (mouse)
T1 chain 1: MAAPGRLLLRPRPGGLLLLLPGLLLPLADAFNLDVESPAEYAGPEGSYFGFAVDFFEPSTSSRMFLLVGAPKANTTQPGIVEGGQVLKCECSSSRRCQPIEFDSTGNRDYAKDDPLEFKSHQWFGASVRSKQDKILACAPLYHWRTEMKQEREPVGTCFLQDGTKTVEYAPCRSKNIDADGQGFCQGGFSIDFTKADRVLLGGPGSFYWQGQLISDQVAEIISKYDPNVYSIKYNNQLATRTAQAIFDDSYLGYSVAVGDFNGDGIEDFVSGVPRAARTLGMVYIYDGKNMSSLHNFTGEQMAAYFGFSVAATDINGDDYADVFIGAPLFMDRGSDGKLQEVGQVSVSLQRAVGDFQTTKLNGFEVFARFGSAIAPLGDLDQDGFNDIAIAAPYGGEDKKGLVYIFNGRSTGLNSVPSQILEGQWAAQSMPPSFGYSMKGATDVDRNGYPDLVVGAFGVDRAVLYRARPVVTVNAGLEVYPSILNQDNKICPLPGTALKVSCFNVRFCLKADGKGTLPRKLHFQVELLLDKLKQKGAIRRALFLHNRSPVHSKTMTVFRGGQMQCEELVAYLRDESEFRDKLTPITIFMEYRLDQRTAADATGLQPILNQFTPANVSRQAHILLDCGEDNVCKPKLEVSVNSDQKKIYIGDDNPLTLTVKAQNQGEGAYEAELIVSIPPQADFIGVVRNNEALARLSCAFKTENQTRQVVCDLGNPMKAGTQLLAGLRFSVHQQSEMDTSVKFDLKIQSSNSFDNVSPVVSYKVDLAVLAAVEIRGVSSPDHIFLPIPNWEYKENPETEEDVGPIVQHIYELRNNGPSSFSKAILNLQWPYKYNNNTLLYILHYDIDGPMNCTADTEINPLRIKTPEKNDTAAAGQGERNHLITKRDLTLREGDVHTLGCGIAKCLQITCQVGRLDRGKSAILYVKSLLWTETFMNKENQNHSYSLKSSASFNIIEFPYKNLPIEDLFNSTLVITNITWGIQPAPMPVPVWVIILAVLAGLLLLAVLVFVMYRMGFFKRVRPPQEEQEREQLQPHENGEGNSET
T1 chain 2: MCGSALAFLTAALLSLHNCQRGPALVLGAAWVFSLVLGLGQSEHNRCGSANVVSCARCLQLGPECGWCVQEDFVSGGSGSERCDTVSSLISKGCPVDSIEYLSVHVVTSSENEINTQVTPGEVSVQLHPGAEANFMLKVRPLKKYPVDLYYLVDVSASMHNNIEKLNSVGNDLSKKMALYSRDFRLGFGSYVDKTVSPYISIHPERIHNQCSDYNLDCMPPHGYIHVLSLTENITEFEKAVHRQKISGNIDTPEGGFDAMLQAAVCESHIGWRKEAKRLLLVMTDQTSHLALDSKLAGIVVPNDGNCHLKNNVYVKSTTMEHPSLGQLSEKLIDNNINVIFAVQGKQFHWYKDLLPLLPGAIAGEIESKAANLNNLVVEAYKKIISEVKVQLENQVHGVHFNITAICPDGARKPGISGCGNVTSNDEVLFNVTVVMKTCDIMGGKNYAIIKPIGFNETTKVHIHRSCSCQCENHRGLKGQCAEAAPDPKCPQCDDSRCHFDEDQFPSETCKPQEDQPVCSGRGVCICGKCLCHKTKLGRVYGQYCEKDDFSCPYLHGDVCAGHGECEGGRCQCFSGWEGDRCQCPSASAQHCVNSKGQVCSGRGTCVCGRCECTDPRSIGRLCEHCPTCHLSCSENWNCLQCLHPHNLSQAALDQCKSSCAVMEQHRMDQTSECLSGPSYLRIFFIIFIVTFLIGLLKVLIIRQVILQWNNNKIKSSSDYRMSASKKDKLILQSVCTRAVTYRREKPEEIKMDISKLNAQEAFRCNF
Test: SPR

B1: ADWA11 2.4 Fab (antibody, V domains shown)
VH: EVQLVESGGGLVQPGGSLRLSCAASGFNIKDYYMNWVRQAPGKGLEWVGWIDPDQGNTIYEPKFQGRFTISADTSKNSAYLQMNSLRAEDTAVYYCARRLLMDYWGQGTLVTVSS
VL: DIQMTQSPSSLSASVGDRVTITCRSTKSLSHFNGNTYLFWYQQKPGKAPKRLIYYMSSLASGVPSRFSGSGSGTDFTLTISSLQPEDFATYYCQQSLEYPFTFGGGTKVEIK
  Kd: 0.0708 nM
